Laboratory results taken from article PMC4282981 (Journal of immunology (Baltimore, Md. : 1950), 2014).

Molecular target: Endogenous SHP-1 (human (endogenous in YTS), UniProt P29350 1-595)
Experiment: co-IP

Sequence of Endogenous SHP-1 (P29350 whole entry): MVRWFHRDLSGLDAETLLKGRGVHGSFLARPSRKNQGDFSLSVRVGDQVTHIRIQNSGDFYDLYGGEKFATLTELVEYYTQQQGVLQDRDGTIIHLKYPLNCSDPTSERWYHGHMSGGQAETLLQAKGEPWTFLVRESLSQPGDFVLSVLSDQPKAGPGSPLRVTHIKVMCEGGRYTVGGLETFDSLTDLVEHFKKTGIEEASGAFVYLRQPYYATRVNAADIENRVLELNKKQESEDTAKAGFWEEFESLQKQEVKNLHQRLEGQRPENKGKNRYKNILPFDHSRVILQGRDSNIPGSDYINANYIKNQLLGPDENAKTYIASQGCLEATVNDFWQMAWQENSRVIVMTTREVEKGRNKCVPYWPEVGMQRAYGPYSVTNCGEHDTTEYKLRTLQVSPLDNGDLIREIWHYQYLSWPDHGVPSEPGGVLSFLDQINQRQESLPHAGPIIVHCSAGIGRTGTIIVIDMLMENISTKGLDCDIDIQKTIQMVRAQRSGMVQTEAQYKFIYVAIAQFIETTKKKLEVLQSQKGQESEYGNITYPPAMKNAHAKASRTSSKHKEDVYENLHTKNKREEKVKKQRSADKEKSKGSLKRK

- fold association against 2DL1-WT: ~4 fold
B1: KIR2DL1 H36A mutant tagged with Venus at the C-terminus (receptor, UniProt P43626 22-348, looked up)
chain: HEGVHRKPSLLAHPGRLVKSEETVILQCWSDVMFEAFLLHREGMFNDTLRLIGEHHDGVSKANFSISRMTQDLAGTYRCYGSVTHSPYQVSAPSDPLDIVIIGLYEKPSLSAQLGPTVLAGENVTLSCSSRSSYDMYHLSREGEAHERRLPAGPKVNGTFQADFPLGPATHGGTYRCFGSFHDSPYEWSKSSDPLLVSVTGNPSNSWPSPTEPSSKTGNPRHLHILIGTSVVIILFILLFFLLHRWCSNKKNAAVMDQESAGNRTANSEDSDEQDPQEVTYTQLNHCVFTQRKITRPSQRPKTPPTDIIVYTELPNAESRSKVVSCP
